Like-named read-outs stand apart in the source and are kept apart here.

The test system of one data set is nandinine. Nature of the data set: CYP719 Ring B closure of nandinine to stylopine in GC1333. It counts as cell-based, Saccharomyces cerevisiae. The protocol:
FIG. 11A-B: showing conversion of (S)-cheilanthifoline (FIG. 11A) or (S)-nandinine (FIG. 11B) to (S)-stylopine by purchased CYP719s. Plasmids harboring CYP719s were transformed into GC1333 containing an integrated PsCPR. Strains were incubated with the appropriate BIA overnight, and then total BIAs were extracted and total molar ratios were compared. PsSPSΔN was used as a control.
The 10 CYP719s with 95% activity on Ring A of scoulerine and the 10 CYP719s with activity on Ring B of scoulerine were tested for activity on cheilanthifoline and nandinine, respectively, in order to generate a branched stylopine synthesis pathway. […] CYP719s PsCFS and EX101, capable of converting >98% of scoulerine to cheilanthifoline and nandinine, respectively, were incubated with scoulerine. After 16 h, cells were pelleted and the supernatant fraction was collected. The supernatant was then applied to fresh yeast strains in order to supplement them with either TE containing nandinine or cheilanthifoline as necessary.

For data set [1], the system named is scoulerine. Nature of the data set: CYP719s in GC1316 (integrated PsCPR and PsCFS) supplemented with scoulerine. It counts as cell-based, Saccharomyces cerevisiae. The text has this:
(§1) Plasmids harboring CYP719s were transformed into either GC1333 containing an integrated PsCPR (FIG. 10A) or GC1316 containing an integrated PsCPR and an integrated PsCFS (FIG. 10B). Strain GC1333, harboring PsCPR integrated into the chromosome, was transformed with pBOT plasmids, with GFP removed, harboring individual CYP719s (CYP719 EX41-105). (See Tables 7-8 below presenting the nature and activity of these CYP719s).
Plasmids harboring individual CYP719s were transformed into strain GC1316, which harbored PsCPR and PsCFS integrated into the genome. Strains were supplemented with scoulerine and after 16 hours total BIAs were extracted and the molar ratio was compared (FIG. 10B). The four possible BIAs that could be extracted were scoulerine, the single Ring A product nandinine, the single Ring B product cheilanthifoline, and the double Ring A, Ring B product stylopine.

Data set [2] in a line: Microsomal cytochrome P450 enzyme assay of PsCFS and PsSPSΔN incubated with (S)-scoulerine. It counts as biochemical, Papaver somniferum. The conditions noted are these: microsomes with PsCPR; 125 μM (S)-scoulerine, 500 μM NADPH. Here is the method: The pESC-CPR vector encoding opium poppy cytochrome P450 reductase (PsCPR) fused to a c-Myc tag was used for the heterologous expression of plant proteins in S. cerevisiae^25. The amplicon was inserted into NotI and SpeI restriction sites of pESC-CPR in-frame with a FLAG-tag sequence yielding pESC-CPR/CFS. […]
Analysis of enzyme assays was performed using an Agilent™ 1200 liquid chromatography system equipped with a 6410 triple-quadrupole mass spectrometer (Agilent Technologies; Santa Clara, Calif.). […] Scoulerine, cheilanthifoline, and stylopine were detected in multiple reaction monitoring (MRM) mode using a collision energy of 25 eV and monitored transitions of m/z 328→178, 326→178 and 324→176, respectively.
Constructs for the heterologous expression of PsCFS and PsSPS in S. cerevisiae were assembled in a vector harbouring PsCPR (Table 1 above). […] No conversion of scoulerine was detected in the negative control. […]

Data set [3] concerns scoulerine. Nature of the data set: CYP719 substrate affinity test on scoulerine in GC1333 (integrated PsCPR): Ring A / Ring B closure. The class given is cell-based, Saccharomyces cerevisiae. The conditions noted are these: single CYP719 with PsCPR, 16 hours. Here is the method:
To broadly identify CYP719 activities on BIAs, a substrate affinity test was performed with the protoberberine BIA scoulerine. CYP719s have been described to form methylenedioxy bridges on BIAs from an alcohol group and a methyl group on adjacent carbons. Two different rings can be made on scoulerine, which can be called “Ring A” and “Ring B”, with the BIA products being called “nandinine” and “cheilanthifoline”, respectively (see FIG. 19). CYP719-catalyzed formation of both Ring A and Ring B of scoulerine (“Ring A-closing activity” and “Ring B-closing activity”) has been identified and published. Certain CYP719 enzymes included in the affinity tests have published ring A and Ring B activities.
as §1
The resulting CYP719-harboring strains (strains SF41-105) were supplemented with scoulerine. After 16 hours, BIAs were extracted and the molar ratio of scoulerine to downstream BIAs was calculated (FIG. 10A).

B1: EX84: Papaver somniferum cheilanthifoline synthase, ADB89213.1, SEQ ID NO: 363 (protein, listed as Papaver somniferum)
chain: MEVTFWLITCGVVVAFALAKLLFGKKSSMSTMEWPSGPKTLPIIGNLHQLGGEAFHVCLANLAKVYGGVFTIWVGSWRPFIVISDVDKAWEVLVNKSSDYSARDMPDITKIISANWKNISHGDSGPFWHNLRKGLQGVALTPFNVASQYHLQERDMQNLIKSMKKKASQKNGILKPLDYVKEETVRLLSRLIFSQEFVDEDFVVGMHQALDELVSISGYASLADAFKFCENLPSHKKTIRAVHAIKIRFDNLIRPHIVSNPPTNTYLHFLLSQDFSEDVIISAILEVYDLGVDSTASTTVWALTFLVREQKIQEKLYREINNVTGGKRPVKVEDLNKLPYLQAVMKETMRMKPIAPMAIPHKASKDTSLMGKKINKGTVVMVNLYAIHHNPAVFPEPYKFMPERFLKDANSDGSLGDIKKMESSLLAFSAGMRICAGMELGKLQLAFGLASLVNEFKWDCVAEGKLPDLSEEHCFILLMKNPLEAKITPRIH
Consider B1, for which the “conversion of nandinine to stylopine” value with nandinine (nandinine generated in vivo from scoulerine, in TE) is listed as 12%. The “conversion of scoulerine to cheilanthifoline” value in the data set on scoulerine [1] (PsCFS alone in GC1316) stood at 100%. Further, the activity on nandinine result in the data set with scoulerine [1] (inferred from residual nandinine in GC1316 strains) is “little to no activity on nandinine”. Besides, in data set [2], the “conversion of (S)-scoulerine by microsomal proteins (LC-MS products)” value is “converted to cheilanthifoline”.

B2: EX94: N-truncated Papaver somniferum stylopine synthase (CYP719A20) with lettuce germacrene A oxidase N-terminal domain, SEQ ID NO: 373 (protein, listed as Papaver somniferum)
chain: MELSITTSIALATIVFFLYKLATRPKSTKKQLPEASRLPIIGHKRKKSSTMVWPTGPKTLPIIGNMHVLGGTALQVVLHNLAKIHGNVMTIWIGSWRPVIVVSDIDRAWEVLVNKSSDYSARDMPEITKIISADWKTISTSDSGPGWSNLRKGLQNVALSPHNLAAQSQFQEKDITKMIQSLKKEAASNNGIVKPIDHLKKATLRLISRLIFGQDFDDDKYVDDMHHAIEELIRVSGYAQLAEAFYYAKYLPSHKKAVRDVEEANQRVKKLVRPFLSLNPPTNTYLHFLNSQKYDEEVIIFAIFEAYLLGVDSTSLTTAWALAFLIREPVVQDKLYQELKNLTAKNDCEIVKVEDLNKLQYLQAVLKETMRMKPIAPLAIPHKACRDTSLKGNKIDQGTQVMVNIYALHHNEKVWKEPFKFMPERFLQTQDVVNGKGMEQSLLPFSAGMRICAGMELGKLQFSFSLANLVNAFEWSCVSDGVLPDMSDQLGFVLLMKTPLQARIVPRV
B2: the “conversion of (S)-scoulerine by microsomal proteins (LC-MS products)” value in data set [2] is “converted to cheilanthifoline and stylopine”.

B3: EX61: CYP719 from Eschscholzia californica, Q50LH3.1, SEQ ID NO: 340 (protein, listed as Eschscholzia californica)
chain: MEEMKILMMNNPWILTATATTLLISIFLFFTRKSSKMVWPAGPKTLPIIGNMHLLGGTALQVVLHNLAKVHGSVMTIWIGSWRPVIVVSDIERAWEVLVNKSSDYSARDMPDITKIISADWKTISTSDSGPHWTNLRKGLQNVALSPHNLAAQFQFQEKDMTKMIQTLQEEARNNNGIVKPLDHMKKATLRLISRLVFGQDFNNDKYVDDMHLAIEELIRVSGYARLAEAFYYAKYLPSHKKAVREVEEAQRRVQNLVSPFLSLNPPTNTYLHFLRSQKYDDEVIIFAIFEAYLLGVDSTSLTTAWALAFLIRESNVQEKLYQELESFASKMDRKILKVEDINKLQYLQAVIKETMRMKPIAPLAIPHKACRDTSLMGKKIDKGTRVMVNIYALHHNKNVFNDPFKFMPERFMKVDSQDANGKAMEQSLLPFSAGMRICAGMELGKLQFSFALANLAYAFKWSCVADGVLPDMSDQLGFVLLMKTPLEARINRRN
As for B3, in the data set with scoulerine [3], the “conversion of scoulerine to the Ring A product nandinine (Ring A closure)” value is 90%.

B4: EX54: CYP719 from Chelidonium majus, SEQ ID NO: 333 (protein, listed as Chelidonium majus)
chain: MEESFWLVAATVLVVFVVAKLLFRKSSSISTMEWPAGPKTLPIIGNLHQLGGAALHVVLANLAKVYGSVMTIWVGAWRPMIVISDIDKAWEVLVNKSSDYSARSLPEITRIISANWKNIMTSDSGPFWQNLRKGLQGGALSPHNVMSQYQLQERDMQNLIKTMRVEASKNNGRIKPLDHLKQETVRLLSRLIFGQDFNDEKLVVGMHHALDDLVRISGYASLADAFKVAENLPSHKKSIREVHELKRRVENLVRPHIVSNPPTNTYLNFLLSQNFSEDLIISAILEVYDLGVDSTASTTVWALTFLVREQKVQEKLYQEIKNLTGGRSTVKVEEVSKMPYLQAVMKETMRMKPIAPMAIPHTAARETSLMGKKIDKGTVVMVNLYAIHHNPNIFPEPYKFMPERFLHGEEQNGGNIKEMEQSLLPFSAGMRICAGMELGKLQLGFALASLVNAFKWECAADGKLPDLSEDHCFILLMKNPLEAKITPRTH
As for B4, the “conversion of nandinine to stylopine” value in the data set on nandinine is given as above 98%.

B5: EX98: CYP719 from Stylophorum diphyllum, SEQ ID NO: 377 (protein, listed as Stylophorum diphyllum)
chain: MEESFWLVTATVVVVFVIAKLQFRKSSSISTMEWPAGPKTLPIIGNLHQLGGAALHVVLANLAKAYGSVMTIWVGSWRPMIVISDFDKAWEVLVNKSSDYSARSLPEITRIISANWKNIMTSDSGPFWQNLRKGLQSGALSPHNVMSQYQLQERDMQNLIKTMRVEAFKNNGRIKPLDHLKQETVRLLSRLIFGQDFNDEKLVVGMHHALDDLVRISGYASLADAFKFAENLPSHKKSIREVHELKKRVENLVRPHIVSNPPTNTYLNFLQSQNFSEDLIISAILEVYDLGVDSTASTTVWALTFLVRELKVQEKLYQEIKNLTGGRSTVKVEEVSKMPYLQAVMKETMRMKPIAPMAIPHTAARETSLMGKKIDKGTVVMVNLYAIHHNPNIFPEPYKFMPERFLHGEEQNGGNIKEMEQSLLPFSAGMRICAGMELGKLQLGFALASLVNAFKWECAVDGKLPDMSEDHCFILLMKNPLEAKITPRTH
In the case of B5, the “conversion of nandinine to stylopine” value in the data set on nandinine is listed as above 98%.

B6: EX46: CYP719 from Corydalis cheilanthifolia, SEQ ID NO: 325 (protein, listed as Corydalis cheilanthifolia)
chain: MVNAVAEILTEKPWLLPATLLAVIAIAKFFLGKSSTMKWPIGPKTLPIIGNMHQLGGTDLQVVLANLAKTYGTIMTIWVGSWRPMIVLSDIEKAWEVLVNKSSDYSGRAMPEITEIISAKGKTISTSDSGPHWSNLRKGLQNVALSPHNIAAQSRFQESDITKMIKTLKQEAASNNGIVQPLDHLKKSTVRLISRLIFGQDFDDDEYVEAMHLAVEELIRVSGYARLAEAFYYAKYLPSHKRAVSEVWEANRRVKRIVKPRLSANPPPNCYLHFLSSQDYSEEMIIFAIFEAYLLGVDSTSSTTAWALGFLIREPKVQERLYQELKNCAGENGLIKVEDINKLPYLQAVLKETMRMKPIAPLAIPHKAVRETSLAGNKVEPGTRVMVNLYAIHHNPKVWIDPHKFKPERFLQGEENGGGNLKLMEQSLLPFSAGMRTCAGMELGKLQFGFSLANLVNAFQWDCAKKGMFPDMSDLLGFVLLMKTPLQAKIVPRGSPSINGY
In the case of B6, in the data set on scoulerine [3], the “conversion of scoulerine to the Ring A product nandinine (Ring A closure)” value turned out to be 66%.

The values above are taken from US20160340704A1, “METHOD OF MAKING A BENZYLISOQUINOLINE ALKALOID (BIA) METABOLITE, ENZYMES THEREFORE” (VALORBEC SOCIÉTÉ EN COMMANDITE, priority 2014, published 2016).
